The values below come from patent EP1730287B1 (Syngenta Participations AG, dated 2011).

This experiment has as its target T1, NIM450 bait (first 450 amino acids of the NIM1 protein fused to the LexA DNA binding domain) (Arabidopsis, UniProt P0A7C2 1-202; P93002 1-450).
T1 construct: Truncated bait of the yeast two-hybrid screen
T1 sequence (looked up): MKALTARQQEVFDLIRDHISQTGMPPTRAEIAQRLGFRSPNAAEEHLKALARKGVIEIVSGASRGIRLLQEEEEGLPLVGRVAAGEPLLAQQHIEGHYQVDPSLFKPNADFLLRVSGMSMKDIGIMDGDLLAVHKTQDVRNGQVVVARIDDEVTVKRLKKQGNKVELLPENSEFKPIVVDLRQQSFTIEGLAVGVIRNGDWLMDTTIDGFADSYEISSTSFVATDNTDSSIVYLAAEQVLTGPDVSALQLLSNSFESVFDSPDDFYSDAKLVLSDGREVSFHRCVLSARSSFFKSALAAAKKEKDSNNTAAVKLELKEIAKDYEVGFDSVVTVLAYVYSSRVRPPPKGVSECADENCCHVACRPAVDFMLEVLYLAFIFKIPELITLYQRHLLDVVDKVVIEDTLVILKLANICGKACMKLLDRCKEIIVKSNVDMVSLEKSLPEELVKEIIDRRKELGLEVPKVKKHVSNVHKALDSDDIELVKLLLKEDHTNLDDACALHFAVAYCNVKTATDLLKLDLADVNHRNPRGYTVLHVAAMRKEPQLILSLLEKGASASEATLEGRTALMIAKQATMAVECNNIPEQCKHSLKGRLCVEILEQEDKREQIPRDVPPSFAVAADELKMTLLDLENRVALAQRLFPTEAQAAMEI
The experiment is described as follows: yeast two-hybrid (LexA bait, B42 prey; Leu2 and LacZ reporters).

B1: NI16 clone (Arabidopsis NI16 cDNA clone from the pJG4-5 library, fused to the B42 transcriptional activation domain) (other, not shown: large carriers)
chain: MNNSLKKEERVEEDNGKSDGNRGKPSTEVVRTVTEEEVDEFFKILRRVHVATRTVAKVNGGVAEGELPSKKRKRSQNLGLRNSLDCNGVRDGEFDEINRVGLQGLGLDLNCKPEPDSVSLSL
notes: Prey of the yeast two-hybrid screen; also called NI16 protein
Take B1: the binding result is “no binding”.
